In patent publication US20220089765A1, “CD31 COMPETITORS AND USES THEREOF” (ENCEFA, priority 2019, published 2022):

Legend:
[1] = target: CD38 (on cells of midbrain cultures from Wistar rat embryos) (UniProt Q64244); assay: cell-based or functional assay
[2] = in humans; cited from earlier work
[3] = tested on: midbrain dopaminergic (TH+) neurons; assay: MPP+ intoxication model in midbrain cell cultures, survival of DA (TH+) neurons; assay type: cell-based, Wistar rat
Experimental: For this purpose, spontaneously occurring DA cell death was prevented by a treatment combining depolarizing concentrations of K^+ (30 mM) and MK801 (5 μM), a glutamate receptor antagonist used to prevent unwanted excitotoxic insult. The cultures were then exposed to 3 μM MPP between 5 and 7 days in vitro (DIV) to achieve a loss of approximately 50% of DA neurons.
Animals were treated in accordance with the Guide for the Care and Use of Laboratory Animals (National Research Council, 1996), European Directive 86/609, and the guidelines of the local institutional animal care and use committee. Cultures were prepared from the ventral mesencephalon of gestational age 15.5 Wistar rat embryos (Janvier Breeding Center, Le Genest St Isle, France). Dissociated cells in suspension obtained by mechanical trituration of midbrain tissue pieces were seeded at a density of 1.2-1.5×10^5 cells/cm^2 onto tissue culture supports precoated with 1 mg/mL polyethylenimine diluted in borate buffer pH 8.3 as described (Michel et al., 1997. J Neurochem. 69(4):1499-507). The cultures were then maintained in N5 medium supplemented with 5 mM glucose, 5% horse serum, and 0.5% fetal calf serum, except for the first 3 DIV, when the concentration of fetal calf serum was 2.5% to favor initial maturation of the cultures (Guerreiro et al., 2008. Mol Pharmacol. 74(4):980-9). They were fed daily by replacing 70% of the medium. Routinely, mesencephalic cultures were established on Nunc 24-well culture plates (Thermofischer Scientific, Rochester, N.Y.). Note that these cultures contain tyrosine hydroxylase (TH)^+ neurons that were exclusively dopaminergic (Traver et al., 2006. Mol Pharmacol. 70(1):30-40). TH^+ neurons represented approximately 1-2% of the total number of neuronal cells present in these cultures. The evaluation of the survival of DA neurons was performed by counting cells immunopositive for TH as described (Toulorge et al., 2011. Faseb J. 25(8):2563-73).
Treatments with MPP were performed in cultures where the spontaneous death process was prevented by long-term exposure to depolarizing concentrations of K^+ (30 mM), in the presence of the glutamate receptor antagonist MK801 (5 μM) to prevent unwanted excitotoxic insults as described previously (Douhou et al., 2001. J Neurochem. 78(1): 163-74). Treatments with MPP and potential neuroprotective molecules were carried out between 5 and 7 DIV.
The cultures were fixed for 12 min using 4% formaldehyde in Dulbecco's phosphate-buffered saline (PBS), then washed twice with PBS before an incubation step at 4° C. for 24 h with the following antibodies. A monoclonal anti-TH antibody diluted 1/5000 (ImmunoStar, Inc., Hudson, Wis.) was used to assess the survival of DA neurons. Antibody was diluted in PBS containing 0.2% Triton X-100. Detection of the primary antibodies was performed with an Alexa Fluor-488 conjugate of an anti-mouse IgG antibody.

IL-10 = IL-10 levels in mice after intravenous injection (plasma ELISA); conditions: mouse
Experimental: To test whether the anti-inflammatory properties of agonistic anti-CD38 antibodies were also observe in vivo, we intravenously injected anti-CD38 antibody clone HB7 (15 mg/kg) to mice.
Blood samples collected in collection tube (Microvette® 500 EDTA-K3, […]) were centrifuged at 3000 rotations per minute during 15 minutes. Supernatants (plasma) were collected and transferred into tubes and froze at −80° C. for further analysis. IL-10 levels in plasma samples were assayed using an ELISA IL-10 kit (BioLegend®) according to the indications for use specified by the manufacturer.

Sequence of UniProt Q64244 (Q64244 whole entry): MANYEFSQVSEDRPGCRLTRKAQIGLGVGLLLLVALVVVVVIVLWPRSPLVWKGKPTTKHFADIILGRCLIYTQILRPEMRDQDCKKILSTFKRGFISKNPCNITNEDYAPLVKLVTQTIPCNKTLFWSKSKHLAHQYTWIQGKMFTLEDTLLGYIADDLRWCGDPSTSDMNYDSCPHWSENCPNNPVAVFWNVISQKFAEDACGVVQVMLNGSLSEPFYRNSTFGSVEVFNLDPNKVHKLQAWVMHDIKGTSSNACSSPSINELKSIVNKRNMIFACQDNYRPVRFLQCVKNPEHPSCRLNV

Which EC50 of prevention of MPP+-induced DA cell loss (TH+ cell survival in midbrain cultures) [1] does the source give for “murine sCD31 (from UniProt Q08481 18-585) (ligand)” here?
Its EC50 of prevention of MPP+-induced DA cell loss (TH+ cell survival in midbrain cultures) is 0.036 µg/mL.

B1: ABBV-8E12: monoclonal antibody whose brain/plasma ratio in humans is cited (antibody, chains of the INN, looked up, V domains shown)
VH: EVKVVESGGGLVQPGGSMKLSCVVSGFTFSNYWVNWVRQAPGKGLEWVAQIRLKSDNYATHYEESVKGRFTISRDDSKSSVYLQMNNLRAEDSGIYYCTNWEDYWGQGTTVTVSS
VL: DIVLTQSPDSLAVSLGERATISCRASQSVSTSRYSYIHWYQQKPGQPPKLLIKYASNLESGVPSRFSGSGSGTDFTLNIHPLEPEDFATYYCHHSWEIPLTFGQGTKLEIK
With B1 as the molecule, how does the Brain/plasma ratio [2] read?
The Brain/plasma ratio was 0.385%.

B2: sCD31: soluble form of CD31; murine sCD31 with SEQ ID NO: 3 (protein)
chain: MLLALGLTLVLYASLQAEENSFTINSIHMESLPSWEVMNGQQLTLECLVDISTTSKSRSQHRVLFYKDDAMVYNVTSREHTESYVIPQARVFHSGKYKCTVMLNNKEKTTIEYEVKVHGVSKPKVTLDKKEVTEGGVVTVNCSLQEEKPPIFFKIEKLEVGTKFVKRRIDKTSNENFVLMEFPIEAQDHVLVFRCQAGILSGFKLQESEPIRSEYVTVQESFSTPKFEIKPPGMIIEGDQLHIRCIVQVTHLVQEFTEIIIQKDKAIVATSKQSSEAVYSVMAMVEYSGHYTCKVESNRISKASSIMVNITELFPKPKLEFSSSRLDQGELLDLSCSVSGTPVANFTIQKEETVLSQYQNFSKIAEESDSGEYSCTAGIGKVVKRSGLVPIQVCEMLSKPSIFHDAKSEIIKGHAIGISCQSENGTAPITYHLMKAKSDFQTLEVTSNDPATFTDKPTRDMEYQCRADNCHSHPAVFSEILRVRVIAPVDEVVISILSSNEVQSGSEMVLRCSVKEGTSPITFQFYKEKEDRPFHQAVVNDTQAFWHNKQASKKQEGQYYCTASNRASSMRTSPRSSTLAVRVFL
modifications: Soluble CD31 (sCD31)
Which “EC50 of prevention of MPP+-induced DA cell loss” value ([3]; 3 μM MPP+ between 5 and 7 DIV, sCD31 during the intoxication period) does the source give for B2 here?
Its value is 0.036 µg/mL.

And the “neuroprotective effect against MPP+-induced DA cell death” value ([3]; 3 μM MPP+ between 5 and 7 DIV, test substance up to 1 μg/mL)?
Its value is “prevented”.

And the “neuroprotective effect in the presence of antagonistic anti-CD38 antibody clone AT13/5” value ([3]; 3 μM MPP+, test substance 1 μg/mL, AT13/5 1 μg/mL)?
The value was “antagonized”.

What about the “neuroprotective effect in the presence of anti-CD31 antibody clone Moon-1” value ([3]; 3 μM MPP+, test substance 1 μg/mL, Moon-1 1 μg/mL) of the same molecule?
Its value is “antagonized”.

What about the “neuroprotective effect in the presence of antagonistic anti-CD38 antibody clone OKT10” value ([3]; 3 μM MPP+, test substance 1 μg/mL, OKT10 1 μg/mL) of the same molecule?
The value was “antagonized”.

What about the “neuroprotective effect in the presence of endosidin2” value ([3]; 3 μM MPP+, test substance 1 μg/mL, endosidin2 40 μM) of the same molecule?
The value was “antagonized”.

What about the “neuroprotective effect in the presence of the tyrosine kinase inhibitor genistein” value ([3]; 3 μM MPP+, test substance 1 μg/mL, genistein 10 nM) of the same molecule?
Its value is “antagonized”.

And the “neuroprotective effect in the presence of the lysosomal exocytosis inhibitor vacuolin-1” value ([3]; 3 μM MPP+, test substance 1 μg/mL, vacuolin-1 10 μM)?
Its value is “antagonized”.

What about the “release of IL-10 in vivo (conclusion in words)” value (IL-10) of the same molecule?
Its value is “strong release”.
